Laboratory results from the supplement of paper PMC10126150.
± gives the standard deviation of the averaged measurements.

Test system: ATP
Test: switch fluorescence ratio, 500 uM ATP over buffer (Cy3 cluster intensity, sum of 5 cycles each) (fold (ratio)); higher = stronger signal-on switching upon ATP binding; sequences stand for … in TCGTCGGCAGCGTCAGATGTGTATAAGAGACAGTTTTTTTTTTTTTTTTTTTTTTTTT…TC
Details: aptamer strand: ATP DNA aptamer (quencher-CACCTGGGGGAGTATTGCGGAGGAAGG + anchor), 100 nM annealed; ATP concentration: 500 uM
Summary of the method: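 Clusters carrying Cy3-labelled switching strands on a modified Illumina MiSeq flow-cell were annealed to 100 nM quencher-labelled ATP aptamer and imaged in selection buffer. They were imaged again after 15 min with 500 uM ATP at 22 °C, over five buffer/ATP cycles with NaOH stripping and re-annealing in between. For each cluster, the fluorescence ratio is the summed Cy3 intensity of the target cycles divided by that of the buffer cycles, averaged per switch-domain sequence. Clusters outside 100-1000 RFU were left out.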
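Also: ATP exposure 15 min at 22 °C before imaging.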

Sequence | switch fluorescence ratio
CGTGTTTGGG | 0.994 ± 0.022
CGTGTTTTAT | 0.998 ± 0.039
CGTTAAATAA | 1.004 ± 0.0054
CGTTAAATTT | 0.994 ± 0.033
CGTTAAGAAA | 0.994 ± 0.016
CGTTAAGTTT | 0.9804 ± 0.0066
CGTTAATACT | 2.98 ± 0.045
CGTTAATCGT | 1.01 ± 0.021
CGTTAATCTA | 0.987 ± 0.026
CGTTACCGGA | 1.01 ± 0.029
CGTTACGCGC | 1 ± 0.023
CGTTACGCTT | 1.05 ± 0.066
CGTTACGGGA | 1.02 ± 0.057
CGTTAGAATA | 1.017 ± 0.0078
CGTTAGCTTT | 1.02 ± 0.026
CGTTAGTTCT | 1 ± 0.029
CGTTATCTAG | 1.01 ± 0.03
CGTTATTTTT | 1.016 ± 0.0089
CGTTCAATTA | 0.996 ± 0.027
CGTTCGATAT | 1.03 ± 0.03
CGTTCGGGTT | 0.989 ± 0.044
CGTTCTAATT | 1.01 ± 0.024

Sequence | switch fluorescence ratio
CGTTCTGAAT | 0.9901 ± 0.0086
CGTTCTTGTC | 1.05 ± 0.047
CGTTGATGTC | 1.01 ± 0.13
CGTTGATTTG | 0.9908 ± 0.0057
CGTTGCGAAA | 1.02 ± 0.031
CGTTGCGCCA | 1.02 ± 0.013
CGTTGCTCGA | 0.9992 ± 0.0064
CGTTGGAAGA | 1.02 ± 0.015
CGTTGGATT | 0.986 ± 0.017
CGTTGGCAGC | 1.03 ± 0.028
CGTTGGGGGC | 0.998 ± 0.087
CGTTGGGTTG | 0.987 ± 0.024
CGTTGGTGTC | 0.9921 ± 0.0085
CGTTGGTTCA | 1 ± 0.023
CGTTGGTTTT | 1.04 ± 0.02
CGTTGTGACT | 0.998 ± 0.021
CGTTGTTTCT | 0.967 ± 0.024
CGTTTAATAT | 1 ± 0.033
CGTTTACGGA | 0.998 ± 0.026
CGTTTAGGAC | 1.1 ± 0.21
CGTTTAGGCT | 1.07 ± 0.14
CGTTTAGGGG | 0.9766 ± 0.0063

Sequence | switch fluorescence ratio
CGTTTAGGTG | 1.02 ± 0.038
CGTTTCAAGA | 0.9759 ± 0.0019
CGTTTCGTTT | 0.98 ± 0.039
CGTTTGAACT | 1.025 ± 0.0094
CGTTTGATGG | 0.9807 ± 0.0047
CGTTTGGGCC | 1.01 ± 0.069
CGTTTTATCT | 1.03 ± 0.025
CGTTTTCAGA | 0.9966 ± 0.0015
CGTTTTCTCG | 0.994 ± 0.027
CGTTTTTAAG | 0.982 ± 0.0052
CGTTTTTAGG | 1.02 ± 0.024
CGTTTTTCGG | 0.971 ± 0.0087
CGTTTTTGGG | 0.985 ± 0.036
CGTTTTTTTG | 1.014 ± 0.0018
CGTTTTTTTT | 0.989 ± 0.02
CTAAAGCGCG | 1.07 ± 0.034
CTAAAGGTTC | 1.05 ± 0.05
CTAAAGTGTG | 0.9858 ± 0.0098
CTAAAGTTGG | 0.995 ± 0.02
CTAAATAATA | 0.992 ± 0.027
CTAACAGGGG | 1.426 ± 0.0043
CTAACGGACT | 1.16 ± 0.068

Sequence | switch fluorescence ratio
CTAAGAGGGA | 0.999 ± 0.025
CTAAGATAGC | 1.03 ± 0.041
CTAAGGGAGG | 0.992 ± 0.017
CTAAGGGGGA | 1 ± 0.018
CTAAGGTCTT | 1.07 ± 0.11
CTAAGTTGGG | 1.1 ± 0.13
CTAATAATAT | 1.01 ± 0.025
CTAATAGTGC | 1.016 ± 0.0021
CTAATGATTG | 0.957 ± 0.027
CTAATGGGGA | 0.981 ± 0.044
CTAATGGTAT | 0.991 ± 0.022
CTAATGGTTT | 0.982 ± 0.024
CTAATGTGCC | 0.993 ± 0.052
CTAATTGCCA | 0.994 ± 0.017
CTAATTGCGA | 1 ± 0.016
CTAATTGGTT | 0.988 ± 0.015
CTAATTTAGG | 1 ± 0.018
CTACAATGTA | 1.01 ± 0.021
CTACACGCTG | 1.01 ± 0.1
